The labels stand for the following.
B1: Twister Ribozyme (parent)
chain: AACACUGCCAAUGCCGGUCCCAAGCCCGGAUAAAAGUGGAGGGGGCGG

In the series the parent is B1. Briefly: self-cleavage, relative activity (ratio to wild type); higher = more cleavage; co-transcriptional.
For AACACUGCCAAUGCCGGUCCCAAGCCCGCAUAAAAGUGGAGGAGGCGG [G29C G43A], the self-cleavage came to 0.119.
The value for AACACUGCCAAUGCCGGUCCCAAGCCCUGAUAAAAGUGGUGGGGGCGG [G28U A40U] was 0.156.
Then AACACUGCCAAUGCCGGUCUCAAGCUCGGAUAAAAGUGGAGGGGGCGG [C20U C26U], with 0.128; and AACACUGCCAAUGCCGGCCCCAAGCCAGGAUAAAAGUGGAGGGGGCGG [U18C C27A], with 0.0979; and AUCACUGCCAAUGCCGGUCCCAAUCCCGGAUAAAAGUGGAGGGGGCGG [A2U G24U], with 0.0983.
The value for AACACUGCCAAUGCCGGUCCCAAGCCCGGAUAAAAGUGGUCGGGGCGG [A40U G41C] was 0.17.
AACACUGCCAAUGCCGGUACCAAGCCCGGAUAAAAGUCGAGGGGGCGG [C19A G38C]: the self-cleavage turned out to be 0.0851.
Turning to AACACUGCAAAUGCCGGUCCCAAGCCCCGAUAAAAGUGGAGGGGGCGG [C9A G28C], the self-cleavage worked out at 0.636.
In the case of AACACUUCCAAUGCCUGUCCCAAGCCCGGAUAAAAGUGGAGGGGGCGG [G7U G16U], the self-cleavage turned out to be 0.0559.
For AACACUGCCAAUGCCGGUCCCGAGCCCGGAUAAAAGGGGAGGGGGCGG [A22G U37G], the self-cleavage was found to be 0.0844.
On to AACACUGCCAAUGCCGGACCCAAGCCCGGAUAAAAGAGGAGGGGGCGG [U18A U37A], for which the self-cleavage is 0.0711.
Then AACACUGCCAAUGCCGGUCCCAAGCCCGGAUACAAGUGGAGCGGGCGG [A33C G42C], with 0.19; and AACACUGCCAAUGCCGGGCCCAAGCACGGAUAAAAGUGGAGGGGGCGG [U18G C26A], with 0.0682.
Take AUCACUGCCAAUGCCGGUCCCAAGCCCGGAUAAAAGUGGAGGGGGCGU [A2U G48U]: the self-cleavage turned out to be 0.581.
AACACUGUCAAUGCCGGUGCCAAGCCCGGAUAAAAGUGGAGGGGGCGG [C8U C19G]: the self-cleavage was determined as 0.0901.
The value for AACACUGCCAAUGCCGGUCCCAAGCCCGCAUAAAAGUGGAGGGGGCGC [G29C G48C] was 0.688; that for AACACUGCCAAUGCUAGUCCCAAGCCCGGAUAAAAGUGGAGGGGGCGG [C15U G16A] was 0.457.
Then AACACUGCCAAUGACGGUCCCAAGCCCGGAGAAAAGUGGAGGGGGCGG [C14A U31G], with 0.942; and AACACUGGCAAUGCCGGUCCCAAGCCCGGAUAAAAGUGGAGGGGGCGC [C8G G48C], with 0.272; and AUCACUGCCAAUGCCGGUCCCAAGCCCGGAUCAAAGUGGAGGGGGCGG [A2U A32C], with 0.581.
The value for AACACUGCCAAUGCCGGUCCCAAGCCCGGAUAAGAUUGGAGGGGGCGG [A34G G36U] was 0.105; that for AACAGUGCCAAUGCCGAUCCCAAGCCCGGAUAAAAGUGGAGGGGGCGG [C5G G17A] was 0.0746.
In the case of AACACUGCCAAUGCCGGUCCCAAGCCCGCAUAAUAGUGGAGGGGGCGG [G29C A34U], the self-cleavage came out at 0.292.
Then AACACUGCCACUGCCGGUCCCAAGCCCGGAUAAAAAUGGAGGGGGCGG [A11C G36A], with 0.87.
The value for AACACUGCCAAUGCUGGUCCCAAGCCCGGAUAAUAGUGGAGGGGGCGG [C15U A34U] was 0.68.
Then AACACUGCCAAUGCUGGUCCCAAGCCCGGAUAAAAGUGGAGGGCGCGG [C15U G44C], with 0.812; and AACACUGCCAAUGCCGGUCCCAAGCCCGGAUAAAAGUCGAGGGGGGGG [G38C C46G], with 0.801.
Take AACACUGCCAAUGCCGGUCCCAAGCCCGGCUAAGAGUGGAGGGGGCGG [A30C A34G]: the self-cleavage was 0.326.
The value for AACACUGCCAAUGCCGCUCCCAAGCCCGGAUAAAUGUGGAGGGGGCGG [G17C A35U] was 0.138.
Regarding AACGCUGACAAUGCCGGUCCCAAGCCCGGAUAAAAGUGGAGGGGGCGG [A4G C8A], the self-cleavage turned out to be 0.524.
The value for UACACUGCCAAUGCCGGUUCCAAGCCCGGAUAAAAGUGGAGGGGGCGG [A1U C19U] was 0.0395; that for AACACUCCCAAUGCCGGUCCCAAGCCCGGAUAAAAGUGGUGGGGGCGG [G7C A40U] was 0.0764.
Then AACUCUGCCAAUGCCGGUCCCAAGCUCGGAUAAAAGUGGAGGGGGCGG [A4U C26U], with 0.0595; and UACACUGCCAAUGCCGGUCCCAAGCCCGGGUAAAAGUGGAGGGGGCGG [A1U A30G], with 0.074.
Take AACACUGCCAAUGCCGGUCCCAAGCACGGAUAAGAGUGGAGGGGGCGG [C26A A34G]: the self-cleavage came out at 0.156.
Then AACACUGCCAAUGCCGGUCCCAAGUCCGGAUAAAAGUGGAGGGGGCAG [C25U G47A], with 0.663; and AACCCUGCCAAUGCCGGUCCCAAGCCCGGAUAAAAGUGGAGGGGGCUG [A4C G47U], with 0.121; and GACACUGCCAAUGCCGGUCCAAAGCCCGGAUAAAAGUGGAGGGGGCGG [A1G C21A], with 0.157.
The value for AACACUGCCAAUGCCGGUCCCAAGCCCGGUUAAAAGUGGCGGGGGCGG [A30U A40C] was 0.2; that for AACACUGCCAAUGCCGGUCCCAAGCCCGGUUAAAAGUGGGGGGGGCGG [A30U A40G] was 0.165.
On to AACACUGCCAAUGCCGGUCCCAAUCGCGGAUAAAAGUGGAGGGGGCGG [G24U C26G], for which the self-cleavage was found to be 0.0895.
The value for AACACUGCCAAUGCCGGUCCCAAGCCCGGAUAAAAGUGGAGGGGUCGA [G45U G48A] was 0.757.
Regarding AACACUGCCAAGGCCGGUCCAAAGCCCGGAUAAAAGUGGAGGGGGCGG [U12G C21A], the self-cleavage was found to be 0.0849.
Then AAUACUGCCAAUGCCGGUCCCAAGCCCGGAUAAAAGUGGAGGGGGGGG [C3U C46G], with 0.526; and AACACUGCCAAUGCCGGUCCCAAGCCCGUAUUAAAGUGGAGGGGGCGG [G29U A32U], with 0.911; and AACACUGCCAAUGCCGGUCUCAAGCCCGGAUAAUAGUGGAGGGGGCGG [C20U A34U], with 0.404.
On to AACACUGCCAAUGCCGGUCCCAAGCACGGAUAAAAGUGGACGGGGCGG [C26A G41C], for which the self-cleavage is 0.124.
Consider AACACUGCCAAUGCCCGUCCGAAGCCCGGAUAAAAGUGGAGGGGGCGG [G16C C21G], for which the self-cleavage turned out to be 0.0586.
Then AACACUGCCAAUACCGGUCCCAAGCCCGGAUAAAAGUGGAGAGGGCGG [G13A G42A], with 0.186; and AACACUGCCAAUGCCGGUCCCAAGCCCGGAUAAAAGUGGGUGGGGCGG [A40G G41U], with 0.166.
The value for AACACUGGCAAUGCCGGUCACAAGCCCGGAUAAAAGUGGAGGGGGCGG [C8G C20A] was 0.11; that for AACACUGCCAAUGCCGGUCCCAAGCCCGGAUAAAAUUGGACGGGGCGG [G36U G41C] was 0.114; that for AACACUGCCAAUGCCGGUCCCAAGCCCGGAUAAACGUGAAGGGGGCGG [A35C G39A] was 0.221.
The value for AACAAUGCCAAUGCCGGUCCCAAGCCCGGAUAAAAGUGGAUGGGGCGG [C5A G41U] was 0.132.
